Results reported in paper PMC8775250, “Cryo-EM Structure of the Rhodobacter sphaeroides Light-Harvesting 2 Complex at 2.1 Å” (Biochemistry, 2021).
Ends that are not written are not given here.

B1: LH2 β-polypeptide of the Rhodobacter sphaeroides light-harvesting 2 (LH2) complex (natural protein)
chain: not shown
notes: Gly51 is the C-terminus; N-terminal, transmembrane and C-terminal regions of 14, 32 and 5 residues; nine copies form the outer ring
B2: LH2 α-polypeptide of the Rhodobacter sphaeroides light-harvesting 2 (LH2) complex (natural protein, Rhodobacter sphaeroides 2.4.1, UniProt Q3J144 1-54, looked up)
chain: carboxyl-MTNGKIWLVVKPTVGVPLFLSAAVIASVVIHAAVLTTTTWLPAYYQGSAAVAAE
notes: Met1 is the N-terminus in the structure; nine copies form the inner ring; also called α-apoprotein

Columns and labels:
[1] = molecular target: B2; assay: cryo-EM structure; single-particle cryo-EM of the LH2 complex purified from membranes in 20 mM HEPES pH 7.8 with 0.1% LDAO; C9 symmetry imposed; 2.1 Å; settings: both partners purified
[2] = molecular target: the molecule itself; assay: as above

Row | Binder | binding result [1] | stoichiometry N [2]
1 | B1 | binds | 9
2 | B2 | – | 9
